Biological target: full length MIC-1 receptor (hGFRAL) and its full signaling co-receptor hRET51, stably expressed in BHK21 cells (human, UniProt Q6UXV0 19-394; P07949 29-1114)
Assay: cell-based or functional assay

full length MIC-1 receptor (hGFRAL) and its full signaling co-receptor hRET51, stably expressed in BHK21 cells, sequence (Q6UXV0 19-394, chain 1 of 2): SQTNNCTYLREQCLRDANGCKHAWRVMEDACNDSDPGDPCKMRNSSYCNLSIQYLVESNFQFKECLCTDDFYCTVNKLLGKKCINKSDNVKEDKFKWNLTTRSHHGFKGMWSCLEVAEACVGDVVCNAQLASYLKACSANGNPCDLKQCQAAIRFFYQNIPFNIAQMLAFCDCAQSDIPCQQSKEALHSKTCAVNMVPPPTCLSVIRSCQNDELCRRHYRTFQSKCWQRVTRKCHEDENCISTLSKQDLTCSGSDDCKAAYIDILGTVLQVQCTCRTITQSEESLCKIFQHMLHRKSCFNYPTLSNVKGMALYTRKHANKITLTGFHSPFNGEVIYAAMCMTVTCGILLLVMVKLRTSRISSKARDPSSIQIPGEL
full length MIC-1 receptor (hGFRAL) and its full signaling co-receptor hRET51, stably expressed in BHK21 cells, sequence (P07949 29-1114, chain 2 of 2): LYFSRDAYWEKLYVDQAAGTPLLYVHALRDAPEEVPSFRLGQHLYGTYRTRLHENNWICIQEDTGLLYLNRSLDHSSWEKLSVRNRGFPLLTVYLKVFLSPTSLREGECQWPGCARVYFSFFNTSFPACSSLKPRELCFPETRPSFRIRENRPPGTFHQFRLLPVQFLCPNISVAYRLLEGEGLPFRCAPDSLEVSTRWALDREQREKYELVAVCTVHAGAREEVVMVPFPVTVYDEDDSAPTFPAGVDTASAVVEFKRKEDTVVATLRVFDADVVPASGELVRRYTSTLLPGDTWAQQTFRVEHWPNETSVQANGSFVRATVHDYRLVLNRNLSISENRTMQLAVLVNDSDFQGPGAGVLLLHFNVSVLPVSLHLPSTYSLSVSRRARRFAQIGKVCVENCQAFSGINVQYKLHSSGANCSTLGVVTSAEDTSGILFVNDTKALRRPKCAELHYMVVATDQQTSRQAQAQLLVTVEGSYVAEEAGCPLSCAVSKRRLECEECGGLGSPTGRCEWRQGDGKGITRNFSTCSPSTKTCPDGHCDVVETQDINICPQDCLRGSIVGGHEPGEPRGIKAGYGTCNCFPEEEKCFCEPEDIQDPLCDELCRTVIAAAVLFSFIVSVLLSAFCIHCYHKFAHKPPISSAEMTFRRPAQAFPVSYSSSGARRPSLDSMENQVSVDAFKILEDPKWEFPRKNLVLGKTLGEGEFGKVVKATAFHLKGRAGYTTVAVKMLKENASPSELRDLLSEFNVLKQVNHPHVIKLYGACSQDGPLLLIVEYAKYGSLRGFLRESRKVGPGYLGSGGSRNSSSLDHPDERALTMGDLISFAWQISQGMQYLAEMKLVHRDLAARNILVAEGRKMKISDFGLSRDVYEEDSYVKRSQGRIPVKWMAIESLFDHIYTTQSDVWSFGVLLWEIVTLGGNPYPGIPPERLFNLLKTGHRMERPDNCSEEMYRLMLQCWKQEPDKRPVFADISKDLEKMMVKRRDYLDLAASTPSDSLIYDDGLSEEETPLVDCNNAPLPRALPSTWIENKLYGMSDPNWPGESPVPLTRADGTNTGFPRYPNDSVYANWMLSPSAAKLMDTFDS

B1: MIC-1 (SEQ ID NO: 1) (ligand)
chain: ARNGDHCPLGPGRCCRLHTVRASLEDLGWADWVLSPREVQVTMCIGACPSQFRAANMHAQIKTSLHRLKPDTVPAPCCVPASYNPMVLIQKTDTGVSLQTYDDLLAKDCHCI
Question: With B1 as the binder, how does the Emax read?
Answer: 100%

— patent US20230364248A1 (Novo Nordisk, published 2023)
